One molecule from patent publication US20240118200A1 can be followed below.

Test [1] concerns the target glycoproteins on HeLa cells. Description: SPR imaging on fixed HeLa cells on gold, 50 µg/ml WGA, average of 10 cells, first order kinetic fit.
For test [2], the target named is glycoproteins on HeLa cells. Description: CAR imaging on fixed HeLa cells on glass, 50 µg/ml WGA, average over cells, first order kinetic fit.

B1: wheat germ agglutinin (WGA) with Alexa Fluor 488 tag (protein, UniProt P10968 27-197, looked up)
chain: QRCGEQGSNMECPNNLCCSQYGYCGMGGDYCGKGCQNGACWTSKRCGSQAGGATCTNNQCCSQYGYCGFGAEYCGAGCQGGPCRADIKCGSQAGGKLCPNNLCCSQWGFCGLGSEFCGGGCQSGACSTDKPCGKDAGGRVCTNNYCCSKWGSCGIGPGYCGAGCQSGGCDG
modifications: Alexa Fluor 488 label, site not stated
Usually Kd stands for the equilibrium constant for the complex coming apart. In general, koff refers to a measure of how fast the partners let go of each other. Lower therefore signals a long-lived complex. For orientation: kon means the second-order rate constant of association. Lower therefore signals slower complex formation. In test [1], B1 yielded a Kd of 53 nM, a koff of 0.00013 s⁻¹ and a kon of 2500 M⁻¹ s⁻¹. In addition, in test [2], the Kd is 42 nM, the dissociation rate constant (koff) came out at 0.00026 s⁻¹ and the kon is 6000 M⁻¹ s⁻¹.
